Molecular target: T1, CD19 (human, UniProt P15391 20-556)
T1 construct: whole, on cells; also called CD19 on NALM6, Raji, K562-CD19 and K562-CD19/CD22 cells
T1 sequence (looked up): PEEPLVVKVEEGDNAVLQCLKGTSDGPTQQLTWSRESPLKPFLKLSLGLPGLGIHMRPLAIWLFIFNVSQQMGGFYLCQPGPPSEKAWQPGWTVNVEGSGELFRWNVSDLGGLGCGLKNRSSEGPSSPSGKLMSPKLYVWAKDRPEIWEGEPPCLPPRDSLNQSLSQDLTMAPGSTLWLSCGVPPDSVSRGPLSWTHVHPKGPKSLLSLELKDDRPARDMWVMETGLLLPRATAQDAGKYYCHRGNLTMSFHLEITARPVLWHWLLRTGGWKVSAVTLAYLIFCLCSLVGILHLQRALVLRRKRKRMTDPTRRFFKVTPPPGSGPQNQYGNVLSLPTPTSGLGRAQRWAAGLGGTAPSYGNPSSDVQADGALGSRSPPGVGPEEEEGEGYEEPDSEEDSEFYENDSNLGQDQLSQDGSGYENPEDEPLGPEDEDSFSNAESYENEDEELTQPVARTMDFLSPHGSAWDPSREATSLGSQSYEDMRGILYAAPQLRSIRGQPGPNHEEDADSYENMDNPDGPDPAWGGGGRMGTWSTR
Experiment: told from antigen-specific IFN-γ release of transduced T cells on CD19+ and/or CD22+ cell lines
Description: Primary T cells were mock-transduced or transduced with a lentiviral vector encoding the anti-CD19 anti-CD22 caTCR-7-2a construct. The transduced T cells were mixed with K562 (CD19 CD22 double negative), K562-CD22 (K562 transduced with CD22), K562-CD19 (K562 transduced with CD19), Raji (which expresses both CD19 and CD22), or Raji CD19 K/O (Raji with CD19 knocked out) cells at an effector-to-target ratio of 2.5:1. T-cells secrete IFN-γ when activated by TCR engagement with target ligand. The cytokine release levels of IFN-γ were measured and used as an indicator of the receptor's signaling potential (the higher levels, the higher the receptor's signaling potential and cytotoxic T cell activity). Cytokine concentrations were measured after 16 hours of co-culture using the Magpix multiplex system (Luminex) with the Bio-plex Pro Human Cytokine 8-plex Assay (BioRad).
T cells expressing the anti-CD19 anti-CD22 caTCR-7-2a construct specifically activated IFN-γ secretion when incubated with K562 expressing either CD19 or CD22 antigens. […] In vitro killing

binding result: binds
B1: anti-CD19 anti-CD22 caTCR-7-2a (other)
chain 1: DIQLTQSPSSLSTSVGDRVTITCQASHDIRNYLNWYQQKPGKAPNLLIYAASNLQTGVPSRFSGRGSGTDFTLTISSLQPEDIATYYCQQYDGLPLTFGQGTRLEIKRGGGGSEVQLVQSGAEVKKPGESLKISCKGSGYSFTSYWIGWVRQMPGKGLEWMGIIYPGDSDTRYSPSFQGQVTISADKSISTAYLQWSSLKASDTAMYYCARQVWGWQGGMYPRSNWWYNLDSWGQGTLVTVSSASTKGPSVFPLAPSSKSTSGGTAALGCLVKDYFPEPVTVSWNSGALTSGVHTFPAVLQSSGLYSLSSVVTVPSSSLGTQTYICNVNHKPSNTKVDKRVEPKSCEVKTDSTDHVKPKETENTKQPSKSCHKPKAIVHTEKVNMMSLTVLGLRMLFAKTVAVNFLLTAKLFFL
chain 2: QVQLVESGGGLVQPGGSLRLSCAASGFTFSNYAMSWVRQAPGKGLEWVSSISGSGGSTYYADSVKGRFTISRDTSKNTLYLQMNSLRAEDTAVYYCARYGSAAWMDSWGQGTLVTVSSGGGGSLPVLTQPPSVSVAPGKTARITCGGNNIGSKSVHWYQQKPGQAPVLVVYDDSDRPSGIPERFSGSNSGNTATLTISRVEAGDEADYYCQVWDSSSDYVVFGGGTKLTVLGQPKANPTVTLFPPSSEELQANKATLVCLISDFYPGAVTVAWKADGSPVKAGVETTKPSKQSNNKYAASSYLSLTPEQWKSHRSYSCQVTHEGSTVEKTVAPTECSPIKTDVITMDPKDNCSKDANDTLLLQLTNTSAYYMYLLLLLKSVVYFAIITCCLLRRTAFCCNGEKS
notes: Bispecific chimeric antibody-TCR construct expressed on transduced primary T cells
